# From patent US20240091382A1, “MINIMAL BILE ACID INDUCIBLE PROMOTERS FOR GENE THERAPY” (priority 2020, published 2024)
# B1: imPr+3xIR-ER2: imPr variant with three repetitions of the IR-1-ER2 element (SEQ ID NO: 20) (nucleic acid)
# DNA: TGGACTTTAGGCCATTGACCTATGGACTTTAGGCCATTGACCTATGGACTTTAGGCCATTGACCTAGGTTCCTGCTTTGAGTATGTTCGACCTTTCCTCTCATGTCACTGAACTGTGCTAGATCTGGACTTTAGGCCATTGACCTATAAGCAAATAGATAGTGTTCTTAAAAAAGCCTGATTTCTGTTCAATGCTTTATTACCATGAAAACTGAACTTGGAAAGGGGTGTACAACCCTGACTTTCCACAGTGGCGTCTCTCGCTTCTCCTGGCTCCCTCAAATTCACA
# modifications: Synthetic imPr+3xIR-ER2
# B2: imPr+LRH-1: slightly longer imPr variant including the upstream LRH-1 element (SEQ ID NO: 21) (nucleic acid)
# DNA: TTTCTAAAGCTTGTTGATACCCTCAGAAGGTCCCCACGCACTCTGGGTTTGGGTTCCTGCTTTGAGTATGTTCGACCTTTCCTCTCATGTCACTGAACTGTGCTAGATCTGGACTTTAGGCCATTGACCTATAAGCAAATAGATAGTGTTCTTAAAAAAGCCTGATTTCTGTTCAATGCTTTATTACCATGAAAACTGAACTTGGAAAGGGGTGTACAACCCTGACTTTCCACAGTGGCGTCTCTCGCTTCTCCTGGCTCCCTCAAATTCACA
# modifications: Synthetic imPr+ LRH-1
# B3: imPr+5xIR: imPr variant with five extra repeats of the murine IR-1 element (SEQ ID NO: 19) (nucleic acid)
# DNA: TTAGGCCATTGACCTATTAGGCCATTGACCTATTAGGCCATTGACCTATTAGGCCATTGACCTATTAGGCCATTGACCTAGGTTCCTGCTTTGAGTATGTTCGACCTTTCCTCTCATGTCACTGAACTGTGCTAGATCTGGACTTTAGGCCATTGACCTATAAGCAAATAGATAGTGTTCTTAAAAAAGCCTGATTTCTGTTCAATGCTTTATTACCATGAAAACTGAACTTGGAAAGGGGTGTACAACCCTGACTTTCCACAGTGGCGTCTCTCGCTTCTCCTGGCTCCCTCAAATTCACA
# modifications: Synthetic imPR+5xIR
# B4: imPr+1xIR: imPr variant with one extra repeat of the murine IR-1 element at the 5′end (SEQ ID NO: 6) (nucleic acid)
# DNA: TTAGGCCATTGACCTAGGTTCCTGCTTTGAGTATGTTCGACCTTTCCTCTCATGTCACTGAACTGTGCTAGATCTGGACTTTAGGCCATTGACCTATAAGCAAATAGATAGTGTTCTTAAAAAAGCCTGATTTCTGTTCAATGCTTTATTACCATGAAAACTGAACTTGGAAAGGGGTGTACAACCCTGACTTTCCACAGTGGCGTCTCTCGCTTCTCCTGGCTCCCTCAAATTCACA
# modifications: Synthetic imPR+1xIR
# B5: imPr+3xIR: imPr variant with three extra repeats of the murine IR-1 element (SEQ ID NO: 7) (nucleic acid)
# DNA: TTAGGCCATTGACCTATTAGGCCATTGACCTATTAGGCCATTGACCTAGGTTCCTGCTTTGAGTATGTTCGACCTTTCCTCTCATGTCACTGAACTGTGCTAGATCTGGACTTTAGGCCATTGACCTATAAGCAAATAGATAGTGTTCTTAAAAAAGCCTGATTTCTGTTCAATGCTTTATTACCATGAAAACTGAACTTGGAAAGGGGTGTACAACCCTGACTTTCCACAGTGGCGTCTCTCGCTTCTCCTGGCTCCCTCAAATTCACA
# modifications: Synthetic imPR+3xIR
# Tested on: Huh-7 cells
# Assay: Luciferase expression from BSEP-derived promoter plasmids in Huh-7 cells (FXR co-transfection, CDCA induction)
# Type: cell-based, human
# Details: Huh-7, pCMV-hFXRα2, 30 μM CDCA
# Experimental: FIG. 2. […] In all cases, cells were also transfected with a Renilla expressing plasmid (pRL-CMV). Luciferase and Renilla expression were measured with a luminometer. All samples were tested in triplicates and data are presented as mean±SEM of relative (rel.) units (Luciferase units sec^−1/Renilla units sec^−1). The fold induction of each condition relative to cells transfected only with the luciferase plasmid (Luc plasmid) is indicated on top of each column. The statistical comparison between these two conditions was performed by using an unpaired […] T test. *, p<0.05; **, p<0.01; ***, p<0.001. imPr and ihPr, pAAV-imPr-LucPEST and pAAV-ihPr-LucPEST, respectively; full length mPr, pAAV-mBSEPpr-LucPEST; full length hPr, p-2563/+4-Luc; A1AT, pAAV-A1AT-LucPEST.
# FIG. 18. […] In all cases, cells were also transfected with the same amount of Renilla expressing plasmid (pRL-CMV) to determine the transfection efficiency. Luciferase and Renilla expression were measured with a luminometer. All samples were tested in triplicates and data are presented as mean±SEM of relative (rel.) units (Luciferase units sec^−1/Renilla units sec^−1). The fold induction of each condition relative to cells transfected only with the luciferase plasmid (Luc plasmid) is indicated on top of each column. The statistical comparison between these two conditions was performed by using an unpaired T test. *, p<0.05; **, p<0.01; ***, p<0.001; ****, p<0.0001.
# The inventors first tested whether luciferase expression could be induced by bile salts in hepatic cells from human (Huh-7 and HepG2) and mouse origin (Hepa1-6). For this purpose, they transfected confluent monolayers of these cells in 12-well plates with 0.5 μg pAAV-miPr-LucPEST or pAAV-hiPr-LucPEST plasmids, or with the same amount of control plasmids (pAAV-mBSEPpr-LucPEST, p-2563/+4-Luc and pAAV-A1AT-LucPEST), together with 0.5 μg of plasmids expressing either human FXRα1 (pcDNA3.1-hFXRα1, ordered from GenScript) or FXRα2 (pCMV-hFXRα2, ref NR1H4 cDNA Resource Center, Bloomsburg, PA), two isoforms of FXR that can exert different transcriptional regulation). […] Furthermore, to normalize luciferase expression, and correct for differences in transfection efficiencies, the inventors also co-transfected cells with 0.2 μg of a plasmid expressing Renilla-luciferase from a constitutive promoter (pRL-CMV, Promega). All transfections were performed using lipofectamine 2000 (Thermo Fisher). […] After induction, cells were collected and luciferase and Renilla expression were measured in cell extracts using an Orion L Microplate Luminometer.
# The inventors tested luciferase expression of plasmids containing the variants of imPr promoter in Huh-7 cells as described above. Briefly, the inventors transfected confluent cell monolayers in 12-well plates with 0.5 μg of each of the corresponding plasmids, using as control pAAV-miPr-LucPEST, together with 0.5 μg of pCMV-hFXRa2 using lipofectamine 2000. To normalize luciferase expression, the inventors co-transfected cells with 0.2 μg of a plasmid expressing Renilla-luciferase from a constitutive promoter (pRL-CMV). […] After induction, cells were collected and luciferase and Renilla expression were measured in cell extracts as described.
Molecule,level of luciferase expression compared to plasmid containing imPr promoter,luciferase expression compared to imPr+1xIR
B1,not observed,
B2,not observed,
B3,not observed,
B4,significantly higher level of luciferase expression,
B5,significantly higher level of luciferase expression,significantly higher luciferase expression than imPr+1xIR
